The record followed here is patent CN114685663A (UNIV SOUTHWEST, dated 2022).

Test [1] has as its target 李斯特菌溶血素 (Listeriolysin O, LLO), recombinant rLLO (单增李斯特菌 (Listeria monocytogenes)).
Test [2] addresses 猪溶素 (Suilysin, SLY), recombinant rSLY (猪链球菌 (Streptococcus suis)).
Test [3] deals with 肺炎链球菌溶血素 (Pneumolysin O, PLY), recombinant rPLY (肺炎链球菌 (Streptococcus pneumoniae)).
Another test concerns the target T1, rSLY D4 (猪链球菌 (Streptococcus suis)).
T1 construct: also called SLY D4结构域
T1 chain: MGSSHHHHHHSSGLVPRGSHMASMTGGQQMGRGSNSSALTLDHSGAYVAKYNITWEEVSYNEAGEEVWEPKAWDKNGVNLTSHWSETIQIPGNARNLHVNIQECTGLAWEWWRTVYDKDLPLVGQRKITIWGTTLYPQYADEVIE
Description: Western blot. For orientation: Immunoblotting shows a protein as a band on a membrane.

A further test concerns the target T2, rLLO D4 (单增李斯特菌 (Listeria monocytogenes)).
T2 construct: also called LLO D4结构域
The experiment in a line: Western blot.

The next test addresses T3, rLLO D1-3 (单增李斯特菌 (Listeria monocytogenes)).
T3 construct: also called LLO D1-3结构域
T3 chain: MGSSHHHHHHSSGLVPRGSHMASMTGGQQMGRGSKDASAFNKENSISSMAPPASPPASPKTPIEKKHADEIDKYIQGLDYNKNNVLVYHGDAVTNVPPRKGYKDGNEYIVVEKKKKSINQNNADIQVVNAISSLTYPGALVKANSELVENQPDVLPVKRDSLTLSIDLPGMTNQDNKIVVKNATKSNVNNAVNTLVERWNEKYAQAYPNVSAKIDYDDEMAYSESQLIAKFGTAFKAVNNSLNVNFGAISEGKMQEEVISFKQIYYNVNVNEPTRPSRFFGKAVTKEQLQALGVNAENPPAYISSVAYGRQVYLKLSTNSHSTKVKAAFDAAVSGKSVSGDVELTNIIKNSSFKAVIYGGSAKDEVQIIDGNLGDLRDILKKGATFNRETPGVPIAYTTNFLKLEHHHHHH
The experiment in a line: Western blot.

What is called EC50 is the concentration needed to bring the measured effect to its halfway point.

B1: 抗胆固醇依赖性细胞溶素的抗体 (antibody, V domains shown)
VH: QVQLQQSGPGLVKPSQTLSLTCAISGDSVSSNSVAWNWIRQSPSRGLEWLGRTYYRSKWYNDYAVSVKSRITINPDTSKNQFSLQLNSVTPEDTAVYYCVRVDNSGWGNWGQGTLVTVSS
VL: EIVMTQSPLSSPVTLGQPASISCRSSQSLVHRDGNTYLSWLRQRPGQPPRLLIYKISNRFSGVPDRFSGSGAGTDFTLKISRVEAEDVGIYYCMQATQFPTFGGGTKVEIKR
notes: also called 胆固醇依赖性细胞溶素抗体; 抗胆固醇依赖性细胞溶素抗体
For B1, the EC50 in test [1] was 44.9 µM; in test [2] it was 0.00018 µM; in test [3], 49.9 µM. Further, the binding result with rSLY D4 was “no binding (tested: 抗体1:1000稀释)”; with rLLO D4, “no binding (tested: 抗体1:1000稀释)”; with rLLO D1-3, “binds”.
